The results in this text go back to patent US20240058465A1 (SUTRO BIOPHARMA, published 2024).

The target in one experiment is T1, human ROR1 (hROR1) (human, UniProt Q01973 30-937).
T1 construct: On HCT116-hROR1 transfectants, Mino cells or Ntera-2 cells, as the assay of each row says; also called receptor tyrosine kinase like orphan receptor 1
Description: flow cytometry, HCT116-hROR1 cells. As to the method: A mix of ROR1 positive and negative cells was prepared as follows. Ror1 negative cells were washed 2× in PBS then incubated in PBS containing 1 nM CellTrace™ Oregon Green488® (Life Technologies) at 37° C. for 30 minutes. Cells were then washed 2× with RPMI w/10% fetal calf serum (or FCS), washed 2× with FACS buffer (PBS+0.5% BSA), suspended thoroughly in ice-cold FACS buffer at a final concentration of 4×10^6 cells/ml and kept on ice. ROR1 positive cells were washed 2× in PBS and suspended with ice-cold FACS buffer at 4×10^6 cells/ml. ROR1 positive and negative cells were then mixed to obtain a 1-1 cell suspension and seeded at 50 μl per well on 96 well polypropylene plates. 50 μl of 6-12 point dilutions of anti-ROR1 variants starting from concentrations of ˜100-200 nM antibody was dispensed using BioMekFX (Beckman Coulter) into each well. Cells were then incubated on ice for 1 hr, washed with FACS buffer and incubated for 1 hr on ice with 50 μl FACS buffer containing 2.5 μg/ml Alexa647-conjugated Goat Anti-Human IgG dispensed using BioMekFX (Beckman Coulter). Cells were then washed 2× with FACS buffer and fixed for 10 minutes in 200 μl PBS with 2% PFA prior to fluorescence detection. Samples were acquired using a Beckton Dickinson LSRII FACS. Mean Fluorescence Intensity of ROR1 antibody binding was analyzed using FlowJo® software (Tree Star, Inc.).
Background: A flow cytometer gives signals particle by particle.

In experiment [1] the target is T2, human ROR1 Frizzled domain (hROR1-Fz) (human, UniProt Q01973 165-305).
T2 construct: Acro Biosystems, made in HEK293
Description: SPR Biacore, IgG on anti-Fc, ROR1-Fz analyte. On the procedure: Anti-Fc polyclonal antibodies were immobilized onto a CMS chip (GE Life Sciences) using amine coupling chemistry (from Amine Coupling Kit, GE Life Sciences). The immobilization steps were carried out at a flow rate of 25 μL/min in 1×HBS-EP+buffer (GE Life Sciences; 10× Stock diluted before use). The sensor surfaces were activated for 7 min with a mixture of NHS (0.05 M) and EDC (0.2 M). The Anti-Fc antibodies were injected over all 4 flow cells at a concentration of 25 ug/ml in 10 mM sodium acetate, pH 4.5, for 7 min. Ethanolamine (1 M, pH 8.5) was injected for 7 min to block any remaining activated groups.
Off-rate and kinetic binding experiments were performed at 25° C. using 1×HBS-EP+buffer. Test and control antibodies were injected over the anti-Fc surface at concentrations of 5-10 μg/mL for 12 seconds at a flow rate of 10 μL/min on flow cells 2, 3 and 4, followed by a buffer wash for 30 seconds at the same flow rate. […] After capturing ligand (antibody) on the anti-Fc surface, the analyte (hROR1, Fz or Kr domains, Acro Biosystems, Delaware) was bound for 180 seconds, followed by a 600 second dissociation phase at a flow rate of 50 μL/min. Between each ligand capture and analyte binding cycle, regeneration was carried out using 2 injections of 10 mM Glycine pH 2.0 for 30 seconds at 30 μL/min, followed by a 30 second buffer wash step.

B1: SRP2193-B02 (antibody, IgG1, V domains shown)
VH: EVQLVESGGGLVQPGGSLRLSCAASGFNIKNSYIHWVRQAPGKGLEWVGTIDPTRGSTVHADSVKGRFTISADTSKNTAYLQMNSLRAEDTAVYYCARSRWFRVLWSYVFDYWGQGTLVTVSS
VL: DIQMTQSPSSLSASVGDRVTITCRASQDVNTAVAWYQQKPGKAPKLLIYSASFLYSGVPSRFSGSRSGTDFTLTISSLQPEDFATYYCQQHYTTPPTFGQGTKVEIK
notes: His/FLAG-tagged IgG1, cell-free; also called Antibody 77
In the case of B1, in the experiment with human ROR1 (hROR1), the “Bmax (MFI)” value worked out at 15600 MFI and the Kd is 0.28 nM. Besides, in experiment [1], binding was characterised by a dissociation constant (Kd) of 2.35 nM, the koff was determined as 0.000511 s⁻¹ and the on-rate constant (kon) is 218000 M⁻¹ s⁻¹.

B2: SRP2193-E03 (antibody, IgG1, V domains shown)
VH: EVQLVESGGGLVQPGGSLRLSCAASGFNITASYIHWVRQAPGKGLEWVGAIDPKGGSTRFADSVKGRFTISADTSKNTAYLQMNSLRAEDTAVYYCARSRWFRVLWSYVFDYWGQGTLVTVSS
VL: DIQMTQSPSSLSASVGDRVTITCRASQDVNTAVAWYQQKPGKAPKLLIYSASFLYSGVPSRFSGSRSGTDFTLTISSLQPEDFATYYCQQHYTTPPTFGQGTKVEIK
notes: His/FLAG-tagged IgG1, cell-free; also called Antibody 98
As to B2, in the experiment with human ROR1 (hROR1), the “Bmax (MFI)” value was found to be 14800 MFI and the Kd came to 0.19 nM. In experiment [1], this molecule displayed an equilibrium dissociation constant (Kd) of 1.14 nM, a koff of 0.000294 s⁻¹ and a kon of 259000 M⁻¹ s⁻¹.

B3: SRP2193-E01 (antibody, IgG1, V domains shown)
VH: EVQLVESGGGLVQPGGSLRLSCAASGFNIKGKYIHWVRQAPGKGLEWVGAIDPKSGSTAHADSVKGRFTISADTSKNTAYLQMNSLRAEDTAAYYCARSRWFRVLWTYVFDYWGQGTLVTVSS
VL: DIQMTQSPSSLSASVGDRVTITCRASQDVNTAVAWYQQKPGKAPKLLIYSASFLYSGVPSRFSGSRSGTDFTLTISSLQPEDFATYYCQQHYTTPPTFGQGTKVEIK
notes: His/FLAG-tagged IgG1, cell-free; also called Antibody 120
As to B3, in the experiment with human ROR1 (hROR1), the “Bmax (MFI)” value was determined as 17000 MFI and the Kd amounted to 0.13 nM. In experiment [1], this molecule registered a Kd of 1.06 nM, a koff of 0.000242 s⁻¹ and a kon of 228000 M⁻¹ s⁻¹.

B4: SRP2193-D10 (antibody, IgG1, V domains shown)
VH: EVQLVESGGGLVQPGGSLRLSCAASGFNINVSYIHWVRQAPGKGLEWVATIDPNSGFTVHADSVKGRFTISADTSKNTAYLQMNSLRAEDTAVYYCARSRWFRVLWSYVFDYWGQGTLVTVSS
VL: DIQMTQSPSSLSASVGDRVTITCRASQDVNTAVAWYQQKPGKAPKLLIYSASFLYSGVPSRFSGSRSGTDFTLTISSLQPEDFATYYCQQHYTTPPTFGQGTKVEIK
notes: His/FLAG-tagged IgG1, cell-free; also called Antibody 92
Consider B4, for which, in the experiment with human ROR1 (hROR1), the “Bmax (MFI)” value stood at 14800 MFI and the affinity, expressed as Kd, was 0.64 nM. Moreover, in experiment [1], binding was put at a Kd of 3.62 nM, the off-rate (koff) was found to be 0.000379 s⁻¹ and the kon was found to be 105000 M⁻¹ s⁻¹.

B5: SRP2193-C04 (antibody, IgG1, V domains shown)
VH: EVQLVESGGGLVQPGGSLRLSCAASGFNINTSYIHWVRQAPGKGLEWVGAIDPKSGSTNFADSVKGRFTISADASKNTAYLQMNSLRAEDTAVYYCARSRWFRVLWSYVLDYWGQGTLVTVSS
VL: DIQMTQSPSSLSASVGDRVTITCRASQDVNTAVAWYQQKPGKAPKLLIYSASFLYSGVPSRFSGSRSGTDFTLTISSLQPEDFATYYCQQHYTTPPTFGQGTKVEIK
notes: His/FLAG-tagged IgG1, cell-free; also called Antibody 86
B5: in the experiment with human ROR1 (hROR1), the “Bmax (MFI)” value is 14900 MFI and binding was put at a Kd of 0.18 nM. In experiment [1], this molecule gave a Kd of 1.19 nM, a dissociation rate constant (koff) of 0.000207 s⁻¹ and an association rate constant (kon) of 173000 M⁻¹ s⁻¹.

B6: SRP2193-B03 (antibody, IgG1, V domains shown)
VH: EVQLVESGGGLVQPGGSLRLSCAASGFNIRDYYIHWVRQAPGKGLEWVGAIDPVSGSTLFADSVKGRFTISADTSKNTAYLQMNSLRAEDTEVYYCARSRWFRVLWSYVFDYWGQGTLVTVSS
VL: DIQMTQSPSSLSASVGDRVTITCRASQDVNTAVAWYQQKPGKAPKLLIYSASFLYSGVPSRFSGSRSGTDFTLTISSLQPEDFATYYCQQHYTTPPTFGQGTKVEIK
notes: His/FLAG-tagged IgG1, cell-free; also called Antibody 82
As to B6, in the experiment with human ROR1 (hROR1), the “Bmax (MFI)” value worked out at 15500 MFI and the dissociation constant Kd came out at 0.67 nM. In experiment [1], this molecule gave a Kd of 2.96 nM, a koff of 0.000505 s⁻¹ and an association rate constant (kon) of 170000 M⁻¹ s⁻¹.

B7: SRP2193-E11 (antibody, IgG1, V domains shown)
VH: EVQLVESGGGLVQPGGSLRLSCAASGFNINDYYIHWVRQAPGKGLEWVGGIEPNSGATVFADSVKGRFTIGADTSKNTAYLQMNSLRAEDTAVYYCARSRWYRVLWSYVFHYWGQGTLVTVSS
VL: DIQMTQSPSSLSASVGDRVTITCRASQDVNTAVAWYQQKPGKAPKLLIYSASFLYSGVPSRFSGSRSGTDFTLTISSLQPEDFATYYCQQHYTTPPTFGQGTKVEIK
notes: His/FLAG-tagged IgG1, cell-free; also called Antibody 79
With B7, in the experiment with human ROR1 (hROR1), the “Bmax (MFI)” value was determined as 25400 MFI and the Kd is 1.33 nM. In experiment [1], this molecule yielded a Kd of 1.28 nM, a koff of 0.000474 s⁻¹ and a kon of 370000 M⁻¹ s⁻¹.

B8: SRP2193-B04 (antibody, IgG1, V domains shown)
VH: EVQLVESGGGLVQPGGSLRLSCAASGFNISNSYIHWVRQAPGKGLEWVGAIEPKNGSTHHADSVKGRFTISADTSKNTAYLQMNSLRAEDTAVYYCARSRWFRVLWTYVFDYWGQGTLVTVSS
VL: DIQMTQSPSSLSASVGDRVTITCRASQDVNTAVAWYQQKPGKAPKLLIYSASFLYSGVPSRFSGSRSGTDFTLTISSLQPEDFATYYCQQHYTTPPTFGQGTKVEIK
notes: His/FLAG-tagged IgG1, cell-free
Regarding B8, in the experiment with human ROR1 (hROR1), the “Bmax (MFI)” value came to 15600 MFI and the equilibrium dissociation constant (Kd) came out at 0.4 nM. Besides, in experiment [1], the Kd turned out to be 0.778 nM, the koff was 0.000134 s⁻¹ and the kon was 172000 M⁻¹ s⁻¹.

B9: SRP2193-E08 (antibody, IgG1, V domains shown)
VH: EVQLVESGGGLVQPGGSLRLSCAASGFNINEYYIHWVRQAPGKGLEWVGAIDPHSGSTNFADSVKGRFTISADTSKNTAYLQMNSLRAEDTAVYYCARSRWYRVLWSYVFDYWGQGTLVTVSS
VL: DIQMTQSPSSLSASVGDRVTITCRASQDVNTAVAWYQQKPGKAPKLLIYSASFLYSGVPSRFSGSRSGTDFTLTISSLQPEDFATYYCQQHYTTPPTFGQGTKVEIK
notes: His/FLAG-tagged IgG1, cell-free; also called Antibody 87
For the molecule B9, in the experiment with human ROR1 (hROR1), the “Bmax (MFI)” value came to 15100 MFI and the dissociation constant Kd is 4.28 nM. In experiment [1], this molecule displayed a Kd of 3.96 nM, an off-rate constant (koff) of 0.000651 s⁻¹ and an on-rate (kon) of 164000 M⁻¹ s⁻¹.

B10: SRP2194-A01 (antibody, IgG1, V domains shown)
VH: EVQLVESGGGLVQPGGSLRLSCAASGFNITGYYIHWVRQAPGKGLEWVGYISPLAGNTYHADSVKGRFNISADTSKNTAYLQMNSLRAEDTAVYYCARDSRRYVRPMDYWGQGTLVTVSS
VL: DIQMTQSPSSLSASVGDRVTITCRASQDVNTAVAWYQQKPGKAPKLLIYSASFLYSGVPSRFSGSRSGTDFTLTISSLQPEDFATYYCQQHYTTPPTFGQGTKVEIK
notes: as for B8
On to B10, for which, in the experiment with human ROR1 (hROR1), the “Bmax (MFI)” value was found to be 9010 MFI and the dissociation constant Kd stood at 0.12 nM. In experiment [1], this molecule had a dissociation constant (Kd) of 1.07 nM, a dissociation rate constant (koff) of 0.000325 s⁻¹ and an on-rate (kon) of 304000 M⁻¹ s⁻¹.

B11: SRP2196-A01 (antibody, V domains shown)
VH: EVQLVESGGGLVQPGGSLRLSCAASGFNITGYYIHWVRQAPGKGLEWVGQISPNSGYTYYADSVKGRFTISADTSKNTAYLQMNSLRAEDTAVYYCARDSRRYVRGWDYWGQGTLVTVSS
VL: QAVVTQESALTTSPGETVTLTCRSSTGAVTTSNYANWVQEKPDHLFTGLIGGTNKRAPGVPARFSGSLIGDKAALTITGAQTEDEAIYFCALWYSNLWVFGGGTKLTVL
notes: His/FLAG-tagged IgG1
As for B11, in the experiment with human ROR1 (hROR1), the “Bmax (MFI)” value stood at 15800 MFI and the dissociation constant Kd is 0.3 nM.

B12: SRP2194-A11 (antibody, IgG1, V domains shown)
VH: EVQLVESGGGLVQPGGSLRLSCAASGFNITQYYIHWVRQAPGKGLEWVGYISPNSGYTTDADSVKGRFTISADTSKNTAYLQMNSLRAEDTAVYYCARDSRRYVRPFDYWGQGTLVTVSS
VL: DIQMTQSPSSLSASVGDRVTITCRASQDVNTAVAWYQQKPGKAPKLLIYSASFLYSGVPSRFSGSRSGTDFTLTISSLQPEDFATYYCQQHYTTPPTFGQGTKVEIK
notes: His/FLAG-tagged IgG1, cell-free; also called Antibody 135
With B12, in the experiment with human ROR1 (hROR1), the “Bmax (MFI)” value was found to be 8660 MFI and the Kd was 0.1 nM.

B13: SRP2196-B05 (antibody, V domains shown)
VH: EVQLVESGGGLVQPGGSLRLSCAASGFNITGYYIHWVRQAPGKGLEWVGQISPNSGATYHADSVKGRFTISADTSKNTAYLQMNSLRAEDTAVYYCARDSRRYVRGWDYWGQGTLVTVSS
VL: QAVVTQESALTTSPGETVTLTCRSSTGAVTTSNYANWVQEKPDHLFTGLIGGTNKRAPGVPARFSGSLIGDKAALTITGAQTEDEAIYFCALWYSNLWVFGGGTKLTVL
notes: His/FLAG-tagged IgG1
For B13, in the experiment with human ROR1 (hROR1), the “Bmax (MFI)” value is 14800 MFI and binding was characterised by a dissociation constant (Kd) of 0.2 nM.

B14: SRP2194-A04 (antibody, IgG1, V domains shown)
VH: EVQLVESGGGLVQPGGSLRLSCAASGFNITGYYIHWVRQAPGKGLEWVGYISPLAGNTHHADSVKGRFTISADTSKNTAYLQMNSLRAEDTAVYYCARDSRRYVRPLDYWGQGTLVTVSS
VL: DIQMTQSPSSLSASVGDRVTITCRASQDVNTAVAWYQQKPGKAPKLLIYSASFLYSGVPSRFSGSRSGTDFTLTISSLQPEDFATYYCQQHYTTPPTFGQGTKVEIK
notes: as for B8
As for B14, in the experiment with human ROR1 (hROR1), the “Bmax (MFI)” value was found to be 9050 MFI and the affinity, expressed as Kd, was 0.16 nM. In experiment [1], this molecule yielded a dissociation constant Kd of 1.84 nM, an off-rate constant (koff) of 0.000364 s⁻¹ and a kon of 198000 M⁻¹ s⁻¹.

B15: SRP2196-A02 (antibody, V domains shown)
VH: EVQLVESGGGLVQPGGSLRLSCAASGFNITGYYIHWVRQAPGKGLEWVGQISPNSGATHDADSVKGRFTISADTSKNTAYLQMNSLRAEDTAVYYCARDSRRYVRGWDYWGQGTLVTVSS
VL: QAVVTQESALTTSPGETVTLTCRSSTGAVTTSNYANWVQEKPDHLFTGLIGGTNKRAPGVPARFSGSLIGDKAALTITGAQTEDEAIYFCALWYSNLWVFGGGTKLTVL
notes: His/FLAG-tagged IgG1
Consider B15, for which, in the experiment with human ROR1 (hROR1), the “Bmax (MFI)” value is 15200 MFI and the Kd came to 0.2 nM.

A word on the Kd: it is the equilibrium constant for the complex coming apart. A low value points to higher affinity. One may read the koff as the rate constant with which the complex falls apart. The term kon denotes the second-order rate constant of association.
